15 sequences from the DeepSol protein solubility set can be followed below.

The series can be described thus: soluble on expression in E. coli; label from the status in PepcDB or PDB records.
Take “MGSDKIHHHHHHMSTIEERIKEIEDEIKRTQYNKATEHHIGLLKAKIARLQMEARAHKGGGHYGFSIPKSGDATVALVGFPNVGKSSLLNVLTNSESEVGSYAFTTLKAIPGVMEYKGAEIQILDLPGIIENASYGAGRGREILSTVRSADLIVIVTDVETGGLDKIVKELYNSGIVVNRRRKNIEIKKTTSGGIRVHKPKNVDIDSEYIRQLMKEFKLVNADVYIREQVNEDDIIEAVQKNYVYIPSIVAVNKIDMNGAFDTSPLTRFGEVFKVSAKNRIGIDELREGIYRSLKLLRVYLRNKAGVVDFDKPLILTDGSTVRDVCRKINRSLIDSFRYAIISGKNRPIGEQRVGIDYPLLDEDIVTIISRN”: the “soluble on expression in E. coli” value is on record as “not soluble”. For “MSLKGENMRVAGLKTDKQGVIFDMDGLLVNSEELYWQANIQAAREYKLGISDDAYLDLVGASVKAMDAFYEKYFPSDEVRQAFVKRTDDLVWEWTDQGKLKLKAGVKEALEYFNDLGLTVGIASNNYKSVVDHNLWVTGCRNSFDFIVTHDEVAEKKLRSKPFPDLYLAAQERSGLGKDQLLIFEDSSMGVEAAENAGIDCVMIPDIKPASAEDRARAQLICPDFFDFLKKISEGHHHHHH” the value was “soluble”.

Take “NLNKVKFTEEHAIEVTNWKYEGKYSIYNLPPWEEIKKKNFSLAKEDKRKNFISFINDNKELIGFINLLDEGSSVFFGIGMKPNYCGMGIGKEIISLRLQECRNKYSTKPIVLNVRTWNMRAVKCYESQGFKIVETKVQKTH”: the “soluble on expression in E. coli” value was “not soluble”.

On to “MMKVLAFDTSSKALSVAVLNNMECLATVTINIKKNHSINLMPAIDFLMQSIDLEPQDLDRIVVAEGPGSYTGLRVAVATAKMLAYTLKIDLVGVSSLYALTNGFSENDLLVPLIDARRNNVYVGFYQNGDTVKPDCHTSLEEVLQEVGNKANVHFVGEVAAFFDQIKKALPHAKITETLPCAVAIGRKGQKMKSVNVDAFVPRYLKRVEAEENWLKNHCETNTEEYIKRVLEHHHHHH”, for which the “soluble on expression in E. coli” value is reported as “not soluble”. Consider “MGSDKIHHHHHHMSRTADSLPSTRQRRKEARPQELLDAALDLFVEKGFAATRSEEVAARAGVSKGTLYLYYPSKEELLKAVIRENISQEIAEGEDIVRGFDGPTAELLAHLMAEWWRRIGETRASGICKLIISEVRNFPDIAQFYLDEVVLPAERMIGGVVQRGIDRGEFRPVAVDDVVHALMAPMLFLMLHKHSMGACPNLDRRLDAPRVVAMQVDLVLNGLVPRTAPRGGPRKAKA”, for which the “soluble on expression in E. coli” value was “not soluble”. For “MSLANQVLAVNDDLPIRTHKPVHSGKVRSVYWLTEEDSARLIKEKGYDVAPDAPLAIMVISDRISAFDCIWHGEGGLKGVPGKGAALNAISNHWFKLFKDNGLADSHILDIPHPFVWIVQKAKPVKIEAICRKYITGSMWRAYANGEREFCGIQLPEGLEKDKALPNLLMTPSTKGILKGIPGVPEADDVNITRQNIVDNYEAFNFSSAEDIAQYEKLLKEGFNVISQALEGIDQIFVDTKFEFGYVHDAAGNEKLIYMDEVGTPDSSRIWDAKEYQAGNIVENSKEGFRQFLLNHFPDPDILLNKERMPEREALARDNDLPVESLMDISRTYIGIAEKITGKPITLSENPKAEIIEILSKEYGLIDEGHHHHHH”, the “soluble on expression in E. coli” value was “soluble”. For “ALNQMNNLMTQEATGLKILCAPDKDSSFVIYEDDGETMDYANGGYLKTVLDIKAGEQTVLSFRNEGEYETAVEDIYLDVIHREKAPYWVKADGHELPHFLHRKKFEAAQEGWYYSQSLKSVQIKYKNPKKDYEVIVSFEQFDMIGM” the value was “not soluble”. For the sequence “MREVISIHVGQAGVQIGNACWELYCLEHGILPDGTSMEPDGNSGSLGTFFSDTGYGRHVPRSIFVDLEPTVVDEIRTGAYKKLFHPEQMLTGKEDAANNYARGHYTVGKEIIDTTLDRIRRLANNCEGLQGFFVFHSFGGGTGSGFTSMLMERLSAEYGKKSKLEFSIYPAPQISTSVVEPYNSILTTHTTLEHSDCSFMVDNEAIYDICRRNLRVSRPTYNNLNRIISQVVSSITASLRFDGALNVDLNEFQTNLVPYPRIHFPLVAYNPLISSAHHEFLSVDEITKSCFEASNQMVKCDPKHGKYMAVCLLYRGDVVPKDVSAAIKSIKTQRSVQFVDWCPTGFKVGLNYQPPTVIPGGDMAKVPRAVCMLSNTTAIAEAWQRLDYKFDLMYAKRAFVHWYVGEGMEEGEFSEAREDLAALEKDYEEVGADSDANDNGDDEY”, the “soluble on expression in E. coli” value is reported as “not soluble”.

On to “MGSDKIHHHHHHMNTYAQESKLRLKTKIGADGRCVIEDNFFTPPFKLMAPFYPKDDLAEIMLLAVSPGMMRGDAQDVQLNIGPNCKLRITSQSFEKIHNTEDGFASRDMHIVVGENAFLDFAPFPLIPFENAHFKGNTTISLRSSSQLLYSEIIVAGRVARNELFKFNRLHTKISILQDEKPIYYDNTILDPKTTDLNNMCMFDGYTHYLNLVLVNCPIELSGVRECIEESEGVDGAVSETASSHLCVKALAKGSEPLLHLREKIARLVTQTTTQKV”, for which the “soluble on expression in E. coli” value was “not soluble”.

For “MTMTLNELLATNPDGTLEDIAGKYNTSLFAVVEALPTAQCTLATGDRFDQVWDTIATWGEVTLISHTADAILEFKSELPTGTHRHGYFNLRGKNGLSGHIRATSCQHIAFIERKFMGMDTASVVFFNANGAAMFKIFLGRDSHRQLLSAQVDAFRALASELQPEQVLEHHHHHH”, the “soluble on expression in E. coli” value is given as “soluble”. As for “GPGSMKAQPKQIGCYLVTEASREESFVVLEGHEVDNPNRHVRAKALLEDRAAPENISVRIGIEENLLGRSVAYPRARCRALEQEEGKSVRASNDSLAELWRARPL”, the “soluble on expression in E. coli” value is on record as “soluble”. For “MSDNNDRMYELEYPSPEVSGQTAGGPTLIVALQGYADAGHAVESSSSHLMDALDHRLIASFNNDELIDYRSRRPVVVIEHNEVTSMDELNLGLHVVRDNDNKPFLMLSGPEPDLRWGDFSNAVVDLVEKFGVENTICLYAAPMTVPHTRPTVVTAHGNSTDRLKDQVSLDTRMTVPGSASLMLEKLLKDKGKNVSGYTVHVPHYVSASPYPAATLKLLQSIADSADLNLPLLALERDAEKVHRQLMEQTEESSEIQRVVGALEQQYDSE” the value was “not soluble”; for “GPGSMIIWAVGTTNKAKLDSVDIAVRMCFPSYQHDVRPVAVLSIVRAQPISAEESQQGAQHRAHEALSLVPEAHYGVGLEGGLEKISDRWFECGWMYVIERSTGRCGIGSSARFEMSQKLMSKILDEGKELAEVMDEMTGETDVRSGQGAMGVLTAGYLNRAESYSHGLIFALAPFLSDHKYWD”, “not soluble”; for “MNTRQLLSVGIDIGTTTTQVIFSRLELVNRAAVSQVPRYEFIKRDISWQSPVFFTPVDKQGGLKEVELKALILAQYQAAGIAPESVDSGAIIITGESAKTRNARPAVMALSQSLGDFVVASAGPHLESVIAGHGAGAQSLSEQRMCRVLNIDIGGGTSNYALFDAGKVSGTACLNVGGRLLETDAQGRVVYAHQPGQMIIDEVFGSGTDARALAAAQLGQVARRMADLIVEVITGALSPLAQSLMQTGLLPADITPEVITLSGGVGECYRNQPADPFCFSDIGPLLATALHEHPRLREMNVQFPAQTVRATVIGAGAHTLSLSGSTIWLEDVQLPLRNLPVAIPQDDADLVNAWRQALLQLDLDPQTDAYVLALPATLPVRYAALLTVINALTAFVARYPNPHPLLVVAEQDFGKALGMLLRPQLPQLPLAVIDEVVVRAGDYIDIGTPLFGGSVVPVTVKSLAFPS”, “not soluble”. For “MNQAIGGSFDDVIGNHQADTAMIVQISADRKEINLVSIPRDSLVDVPQCETSKGTIPAQYNVMFNSIFAGAYKTGGDLSSAASCTLNAVNSLTGLNIQNFIVVDFAGLVKMIDSVGGVDLCIPQNVNDPYTGLNLDKGMHHLDGVAATQYARIRHGIGDGSDTSRTTRQQYLIKQLMSEALSKNLFTDTAQLYQLAKSALKSLNISQGMADTAALAGLAMSLKNFTMTNLQTQTVPVVPAPSDPNRSVWTDEADNLWEKMRAGKPIFDTADSNSGGSSDTSSDNSASSDDSGTTDSNQSDTTAETPDPVTGLITKSDGTLVDPSTGGTVDPDDGSIHDATTGQYIGLADRYLNATVCAVPAKNLEHHHHHH” the value was “soluble”.
